Results on 26 variants are retold here after the supplement of paper PMC7125110.

B1: glmS ribozyme (parent)
chain: AUAAAAGCGCCAGAACUACAGAAAUGUAGUUGACGAGGAGGAGGUUUAUCGAAUUUUCGGCGGAUGCCUCCAAA

Common to all, as to conditions: with glucosamine-6-phosphate
In data set [1] the parent is B1. The experiment in a line: self-cleavage kobs at 40 uM GlcN6P; higher = faster cleavage; RNA array. Put shortly:
(§1)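 Barcoded ribozyme variants were transcribed in situ on sequenced MiSeq chips by E. coli RNA polymerase. At 37 °C, a hybridised Cy3 probe tracked them while glucosamine-6-phosphate (40 μM to 10 mM) in HEPES/KCl/Mg(OAc)2 buffer flowed in and tiles were imaged over ~14 h. Per-tile medians of signals normalised to baseline and to non-cleaving reference variants were fit to one- or two-exponential decays, giving kobs. kcat and KM came from weighted Michaelis–Menten fits across concentrations.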

Data set [2] covers variants of B1. The experiment in a line: self-cleavage kobs at 10000 uM GlcN6P; higher = faster cleavage; RNA array. An outline of the steps: as §1
The variants in data set [3] derive from B1. Put plainly: self-cleavage kobs at 2500 uM GlcN6P; higher = faster cleavage; RNA array. Put shortly:
as §1

In data set [4] the parent is B1. The experiment in a line: self-cleavage kobs at 160 uM GlcN6P; higher = faster cleavage; RNA array. Put shortly: as §1
Variants of B1 are the subject of data set [5]. Put plainly: self-cleavage kobs at 640 uM GlcN6P; higher = faster cleavage; RNA array. An outline of the steps:
as §1

± gives the standard error. This sample holds only a part of the variants without activity.

In the case of C8U C10U C50A C67G, the “self-cleavage kobs at 40 uM GlcN6P” value with glucosamine-6-phosphate [1] came out at 6.47e-05 ± 2.3e-05 s⁻¹. Besides, the “self-cleavage kobs at 10000 uM GlcN6P” value with glucosamine-6-phosphate [2] was 0.000228 ± 4.1e-05 s⁻¹.
In the case of A12U C68G C70G, the “self-cleavage kobs at 40 uM GlcN6P” value with glucosamine-6-phosphate [1] is < 1e-05 s⁻¹.
Take G7U U31A G32U G41U A48U: the “self-cleavage kobs at 40 uM GlcN6P” value in the data set with glucosamine-6-phosphate [1] is < 1e-05 s⁻¹. The “self-cleavage kobs at 10000 uM GlcN6P” value in the data set with glucosamine-6-phosphate [2] is < 1e-05 s⁻¹.
Regarding C11G A12C G38A, the “self-cleavage kobs at 40 uM GlcN6P” value with glucosamine-6-phosphate [1] is < 1e-05 s⁻¹.
As to G44U G59U U65G, the “self-cleavage kobs at 40 uM GlcN6P” value with glucosamine-6-phosphate [1] is < 1e-05 s⁻¹. In the data set with glucosamine-6-phosphate [3], the “self-cleavage kobs at 2500 uM GlcN6P” value is < 1e-05 s⁻¹.
Turning to G37C A64U, in the data set with glucosamine-6-phosphate [1], the “self-cleavage kobs at 40 uM GlcN6P” value was < 1e-05 s⁻¹. The “self-cleavage kobs at 160 uM GlcN6P” value with glucosamine-6-phosphate [4] was < 1e-05 s⁻¹. The “self-cleavage kobs at 640 uM GlcN6P” value with glucosamine-6-phosphate [5] was < 1e-05 s⁻¹. The “self-cleavage kobs at 2500 uM GlcN6P” value with glucosamine-6-phosphate [3] is < 1e-05 s⁻¹. Further, the “self-cleavage kobs at 10000 uM GlcN6P” value in the data set with glucosamine-6-phosphate [2] is < 1e-05 s⁻¹.
As to A42C A53G, the “self-cleavage kobs at 40 uM GlcN6P” value in the data set with glucosamine-6-phosphate [1] is < 1e-05 s⁻¹. Besides, the “self-cleavage kobs at 160 uM GlcN6P” value with glucosamine-6-phosphate [4] was < 1e-05 s⁻¹.
For G41C U45G, the “self-cleavage kobs at 40 uM GlcN6P” value with glucosamine-6-phosphate [1] was < 1e-05 s⁻¹. Besides, the “self-cleavage kobs at 10000 uM GlcN6P” value with glucosamine-6-phosphate [2] was determined as 9.46e-05 ± 1.7e-05 s⁻¹.
G9A A14G G32U U65A: the “self-cleavage kobs at 40 uM GlcN6P” value with glucosamine-6-phosphate [1] is < 1e-05 s⁻¹. In addition, the “self-cleavage kobs at 2500 uM GlcN6P” value with glucosamine-6-phosphate [3] was < 1e-05 s⁻¹. Also, in the data set with glucosamine-6-phosphate [2], the “self-cleavage kobs at 10000 uM GlcN6P” value is < 1e-05 s⁻¹.
As for C10U A33C U47G G51U C58G A64U C70A, the “self-cleavage kobs at 40 uM GlcN6P” value with glucosamine-6-phosphate [1] was 7.66e-05 ± 2.4e-05 s⁻¹. Moreover, the “self-cleavage kobs at 10000 uM GlcN6P” value in the data set with glucosamine-6-phosphate [2] worked out at 0.000101 ± 2.1e-05 s⁻¹.
Consider U55A C70U, for which the “self-cleavage kobs at 40 uM GlcN6P” value in the data set with glucosamine-6-phosphate [1] was 0.00118 ± 0.00012 s⁻¹. The “self-cleavage kobs at 160 uM GlcN6P” value with glucosamine-6-phosphate [4] amounted to 0.00271 ± 0.00065 s⁻¹. The “self-cleavage kobs at 640 uM GlcN6P” value with glucosamine-6-phosphate [5] came out at 0.00644 ± 0.0011 s⁻¹.
In the case of C11G A15U C34G A39U A48G, in the data set with glucosamine-6-phosphate [1], the “self-cleavage kobs at 40 uM GlcN6P” value was < 1e-05 s⁻¹. For the same variant, the “self-cleavage kobs at 640 uM GlcN6P” value with glucosamine-6-phosphate [5] is < 1e-05 s⁻¹. In the data set with glucosamine-6-phosphate [3], the “self-cleavage kobs at 2500 uM GlcN6P” value is < 1e-05 s⁻¹.
Turning to A36C A39G G66A, the “self-cleavage kobs at 40 uM GlcN6P” value in the data set with glucosamine-6-phosphate [1] was < 1e-05 s⁻¹. Besides, the “self-cleavage kobs at 10000 uM GlcN6P” value with glucosamine-6-phosphate [2] is < 1e-05 s⁻¹.
With U30G A48G C71U, the “self-cleavage kobs at 40 uM GlcN6P” value with glucosamine-6-phosphate [1] was < 1e-05 s⁻¹. In the data set with glucosamine-6-phosphate [5], the “self-cleavage kobs at 640 uM GlcN6P” value is < 1e-05 s⁻¹.
As to A53G C71G, the “self-cleavage kobs at 40 uM GlcN6P” value with glucosamine-6-phosphate [1] is 0.000153 ± 2e-05 s⁻¹. Moreover, in the data set with glucosamine-6-phosphate [5], the “self-cleavage kobs at 640 uM GlcN6P” value turned out to be 0.000377 ± 5.8e-05 s⁻¹. In addition, the “self-cleavage kobs at 2500 uM GlcN6P” value in the data set with glucosamine-6-phosphate [3] was found to be 0.00062 ± 0.00013 s⁻¹.
C8U A15G C34U G35U A36U C68A: the “self-cleavage kobs at 40 uM GlcN6P” value with glucosamine-6-phosphate [1] is < 1e-05 s⁻¹. In addition, in the data set with glucosamine-6-phosphate [4], the “self-cleavage kobs at 160 uM GlcN6P” value is < 1e-05 s⁻¹. Besides, the “self-cleavage kobs at 640 uM GlcN6P” value with glucosamine-6-phosphate [5] is < 1e-05 s⁻¹.
As to G32A C50U, the “self-cleavage kobs at 40 uM GlcN6P” value with glucosamine-6-phosphate [1] is < 1e-05 s⁻¹. Besides, the “self-cleavage kobs at 640 uM GlcN6P” value with glucosamine-6-phosphate [5] is < 1e-05 s⁻¹.
With G7U C10G A15C G37C, the “self-cleavage kobs at 40 uM GlcN6P” value in the data set with glucosamine-6-phosphate [1] was < 1e-05 s⁻¹.
On to A6G G38U A39G G51A C68G C70U, for which the “self-cleavage kobs at 40 uM GlcN6P” value with glucosamine-6-phosphate [1] was 7.83e-05 ± 3.2e-05 s⁻¹.
For the variant U47A A53U, the “self-cleavage kobs at 40 uM GlcN6P” value with glucosamine-6-phosphate [1] came out at 0.000547 ± 6.1e-05 s⁻¹. The “self-cleavage kobs at 160 uM GlcN6P” value with glucosamine-6-phosphate [4] was 0.00098 ± 0.0002 s⁻¹. For the same variant, the “self-cleavage kobs at 640 uM GlcN6P” value with glucosamine-6-phosphate [5] worked out at 0.00349 ± 0.00062 s⁻¹. Also, the “self-cleavage kobs at 2500 uM GlcN6P” value with glucosamine-6-phosphate [3] worked out at 0.00324 ± 0.00072 s⁻¹. For the same variant, the “self-cleavage kobs at 10000 uM GlcN6P” value with glucosamine-6-phosphate [2] is 0.0124 ± 0.0022 s⁻¹.
With U47G U56G C61U C67G C70U, the “self-cleavage kobs at 40 uM GlcN6P” value in the data set with glucosamine-6-phosphate [1] turned out to be 0.000123 ± 6.1e-05 s⁻¹. In the data set with glucosamine-6-phosphate [5], the “self-cleavage kobs at 640 uM GlcN6P” value was found to be 0.000281 ± 8.9e-05 s⁻¹. For the same variant, the “self-cleavage kobs at 10000 uM GlcN6P” value with glucosamine-6-phosphate [2] is 4.99e-05 ± 1.9e-05 s⁻¹.
Consider G13U G29U A36U U57G, for which the “self-cleavage kobs at 40 uM GlcN6P” value with glucosamine-6-phosphate [1] was < 1e-05 s⁻¹. Moreover, the “self-cleavage kobs at 10000 uM GlcN6P” value with glucosamine-6-phosphate [2] is < 1e-05 s⁻¹.
On to G13C G40U A53U G59U, for which the “self-cleavage kobs at 40 uM GlcN6P” value with glucosamine-6-phosphate [1] was < 1e-05 s⁻¹. For the same variant, the “self-cleavage kobs at 10000 uM GlcN6P” value with glucosamine-6-phosphate [2] is < 1e-05 s⁻¹.
Turning to C16U G40A, in the data set with glucosamine-6-phosphate [1], the “self-cleavage kobs at 40 uM GlcN6P” value was 0.000204 ± 2e-05 s⁻¹. In the data set with glucosamine-6-phosphate [4], the “self-cleavage kobs at 160 uM GlcN6P” value was determined as 0.000448 ± 7e-05 s⁻¹. Moreover, the “self-cleavage kobs at 640 uM GlcN6P” value in the data set with glucosamine-6-phosphate [5] was found to be 0.000996 ± 0.00017 s⁻¹. In addition, in the data set with glucosamine-6-phosphate [3], the “self-cleavage kobs at 2500 uM GlcN6P” value turned out to be 0.00398 ± 0.00098 s⁻¹. The “self-cleavage kobs at 10000 uM GlcN6P” value in the data set with glucosamine-6-phosphate [2] is 0.00622 ± 0.00083 s⁻¹.
With G38A A42U C70A, the “self-cleavage kobs at 40 uM GlcN6P” value with glucosamine-6-phosphate [1] was < 1e-05 s⁻¹. Moreover, the “self-cleavage kobs at 2500 uM GlcN6P” value with glucosamine-6-phosphate [3] is < 1e-05 s⁻¹. Moreover, the “self-cleavage kobs at 10000 uM GlcN6P” value with glucosamine-6-phosphate [2] is < 1e-05 s⁻¹.
As for G7C G40C U54G G62A, the “self-cleavage kobs at 40 uM GlcN6P” value in the data set with glucosamine-6-phosphate [1] is < 1e-05 s⁻¹.
